US20200199241A1 (Chugai, published 2020)

T1: human FcγRIIa(R) (human, UniProt P12318 36-217)
T1 construct: also called FcgRIIaR; hFcgRIIa(R)
T1 chain: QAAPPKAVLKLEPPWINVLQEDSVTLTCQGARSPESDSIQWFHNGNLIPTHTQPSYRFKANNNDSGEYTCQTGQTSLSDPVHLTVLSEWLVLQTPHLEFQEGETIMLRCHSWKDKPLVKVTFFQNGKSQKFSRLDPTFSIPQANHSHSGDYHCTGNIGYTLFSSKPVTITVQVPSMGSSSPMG

T2: human FcγRIIa(H) (human, UniProt P12318 36-217)
T2 construct: also called FcgRIIaH; hFcgRIIa(H)
T2 sequence: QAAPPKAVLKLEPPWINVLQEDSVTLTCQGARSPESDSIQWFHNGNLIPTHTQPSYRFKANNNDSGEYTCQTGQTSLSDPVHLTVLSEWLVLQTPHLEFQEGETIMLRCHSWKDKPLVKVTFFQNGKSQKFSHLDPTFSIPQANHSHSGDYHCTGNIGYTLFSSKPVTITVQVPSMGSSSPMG

T3: human FcγRIIb (human, UniProt P31994 43-217, limits assumed)
T3 construct: also called FcgRIIb; hFcgRIIb
T3 sequence: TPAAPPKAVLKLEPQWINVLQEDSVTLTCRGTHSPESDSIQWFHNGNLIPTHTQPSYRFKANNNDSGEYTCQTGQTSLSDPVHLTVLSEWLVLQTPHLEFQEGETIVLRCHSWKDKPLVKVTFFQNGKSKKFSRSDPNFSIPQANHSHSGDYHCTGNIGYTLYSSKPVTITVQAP

B1: GpH7-B3 N325R/GpL16-k0 (antibody, human IgG1)
heavy: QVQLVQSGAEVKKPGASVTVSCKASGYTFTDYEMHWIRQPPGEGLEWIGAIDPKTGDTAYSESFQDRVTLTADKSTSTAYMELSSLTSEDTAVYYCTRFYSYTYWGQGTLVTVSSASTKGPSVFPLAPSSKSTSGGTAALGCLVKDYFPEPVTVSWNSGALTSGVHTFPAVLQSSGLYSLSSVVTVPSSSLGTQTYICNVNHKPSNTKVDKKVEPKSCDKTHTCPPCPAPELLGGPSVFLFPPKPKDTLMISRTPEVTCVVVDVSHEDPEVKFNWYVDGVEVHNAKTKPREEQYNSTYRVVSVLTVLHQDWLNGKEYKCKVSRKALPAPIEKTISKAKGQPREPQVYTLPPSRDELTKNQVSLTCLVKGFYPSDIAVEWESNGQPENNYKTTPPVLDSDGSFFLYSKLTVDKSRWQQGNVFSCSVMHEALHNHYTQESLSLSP
light: DIVMTQSPLSLPVTPGEPASISCQASESLVHSNRNTYLHWYLQKPGQSPQLLIYKVSNRFSGVPDRFSGSGSGTDFTLKISRVEAEDVGVYYCSQNTHVPPTFGQGTKVEIE
notes: B3 variant; copies: 2 + 2
B2: GpH7-B3 P329Q/GpL16-k0 (antibody, human IgG1)
heavy: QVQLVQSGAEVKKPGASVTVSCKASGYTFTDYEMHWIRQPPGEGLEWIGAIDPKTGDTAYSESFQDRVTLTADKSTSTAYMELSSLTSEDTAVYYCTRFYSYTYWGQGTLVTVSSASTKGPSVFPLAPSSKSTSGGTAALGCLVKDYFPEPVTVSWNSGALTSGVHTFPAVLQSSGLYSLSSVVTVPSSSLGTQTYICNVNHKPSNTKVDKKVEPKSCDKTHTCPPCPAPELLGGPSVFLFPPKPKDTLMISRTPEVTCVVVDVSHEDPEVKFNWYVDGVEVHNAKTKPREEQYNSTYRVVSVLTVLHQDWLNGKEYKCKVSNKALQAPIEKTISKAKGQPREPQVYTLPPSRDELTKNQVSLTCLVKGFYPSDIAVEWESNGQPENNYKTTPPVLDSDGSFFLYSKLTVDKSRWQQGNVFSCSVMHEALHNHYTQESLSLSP
light: DIVMTQSPLSLPVTPGEPASISCQASESLVHSNRNTYLHWYLQKPGQSPQLLIYKVSNRFSGVPDRFSGSGSGTDFTLKISRVEAEDVGVYYCSQNTHVPPTFGQGTKVEIE
notes: B3 variant; copies: 2 + 2
B3: GpH7-B3 P271W/GpL16-k0 (antibody, human IgG1)
heavy: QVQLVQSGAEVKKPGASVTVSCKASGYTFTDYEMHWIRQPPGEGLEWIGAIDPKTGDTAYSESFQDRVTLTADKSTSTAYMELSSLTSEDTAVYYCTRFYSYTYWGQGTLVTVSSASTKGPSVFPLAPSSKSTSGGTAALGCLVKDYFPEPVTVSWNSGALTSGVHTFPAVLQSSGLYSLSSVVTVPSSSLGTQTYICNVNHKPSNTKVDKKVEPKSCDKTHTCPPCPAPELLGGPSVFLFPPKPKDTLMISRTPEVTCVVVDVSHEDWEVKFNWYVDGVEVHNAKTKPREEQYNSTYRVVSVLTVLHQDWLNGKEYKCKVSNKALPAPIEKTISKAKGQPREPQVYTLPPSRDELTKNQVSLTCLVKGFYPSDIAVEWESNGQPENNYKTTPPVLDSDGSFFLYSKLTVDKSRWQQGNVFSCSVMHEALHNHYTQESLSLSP
light: DIVMTQSPLSLPVTPGEPASISCQASESLVHSNRNTYLHWYLQKPGQSPQLLIYKVSNRFSGVPDRFSGSGSGTDFTLKISRVEAEDVGVYYCSQNTHVPPTFGQGTKVEIE
notes: B3 variant; copies: 2 + 2
B4: GpH7-B3 N325Y/GpL16-k0 (antibody, human IgG1)
heavy: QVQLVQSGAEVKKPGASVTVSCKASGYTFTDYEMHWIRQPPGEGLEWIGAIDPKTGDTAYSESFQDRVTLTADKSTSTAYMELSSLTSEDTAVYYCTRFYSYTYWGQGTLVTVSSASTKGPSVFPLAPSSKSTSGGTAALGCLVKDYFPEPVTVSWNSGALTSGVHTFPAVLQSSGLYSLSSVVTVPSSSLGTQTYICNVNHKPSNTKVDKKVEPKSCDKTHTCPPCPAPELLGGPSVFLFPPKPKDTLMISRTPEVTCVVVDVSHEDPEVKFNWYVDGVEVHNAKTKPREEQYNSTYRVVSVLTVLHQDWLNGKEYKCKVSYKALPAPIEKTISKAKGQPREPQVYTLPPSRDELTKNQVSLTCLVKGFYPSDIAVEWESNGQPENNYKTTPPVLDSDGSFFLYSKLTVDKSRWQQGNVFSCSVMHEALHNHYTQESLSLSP
light: DIVMTQSPLSLPVTPGEPASISCQASESLVHSNRNTYLHWYLQKPGQSPQLLIYKVSNRFSGVPDRFSGSGSGTDFTLKISRVEAEDVGVYYCSQNTHVPPTFGQGTKVEIE
notes: B3 variant; copies: 2 + 2
B5: GpH7-B3 P329D/GpL16-k0 (antibody, human IgG1)
heavy: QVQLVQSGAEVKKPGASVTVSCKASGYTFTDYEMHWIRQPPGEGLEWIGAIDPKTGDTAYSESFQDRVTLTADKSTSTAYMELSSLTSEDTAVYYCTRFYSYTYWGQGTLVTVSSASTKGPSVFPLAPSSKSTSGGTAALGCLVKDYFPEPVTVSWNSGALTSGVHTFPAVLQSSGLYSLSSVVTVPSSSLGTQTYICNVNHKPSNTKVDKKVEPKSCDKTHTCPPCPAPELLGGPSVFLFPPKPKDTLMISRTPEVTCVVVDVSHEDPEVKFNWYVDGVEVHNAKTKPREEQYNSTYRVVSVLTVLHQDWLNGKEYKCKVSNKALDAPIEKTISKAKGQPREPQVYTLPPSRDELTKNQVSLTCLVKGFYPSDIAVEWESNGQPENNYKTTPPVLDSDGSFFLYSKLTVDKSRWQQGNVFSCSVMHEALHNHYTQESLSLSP
light: DIVMTQSPLSLPVTPGEPASISCQASESLVHSNRNTYLHWYLQKPGQSPQLLIYKVSNRFSGVPDRFSGSGSGTDFTLKISRVEAEDVGVYYCSQNTHVPPTFGQGTKVEIE
notes: B3 variant; copies: 2 + 2
B6: GpH7-B3 N325W/GpL16-k0 (antibody, human IgG1)
heavy: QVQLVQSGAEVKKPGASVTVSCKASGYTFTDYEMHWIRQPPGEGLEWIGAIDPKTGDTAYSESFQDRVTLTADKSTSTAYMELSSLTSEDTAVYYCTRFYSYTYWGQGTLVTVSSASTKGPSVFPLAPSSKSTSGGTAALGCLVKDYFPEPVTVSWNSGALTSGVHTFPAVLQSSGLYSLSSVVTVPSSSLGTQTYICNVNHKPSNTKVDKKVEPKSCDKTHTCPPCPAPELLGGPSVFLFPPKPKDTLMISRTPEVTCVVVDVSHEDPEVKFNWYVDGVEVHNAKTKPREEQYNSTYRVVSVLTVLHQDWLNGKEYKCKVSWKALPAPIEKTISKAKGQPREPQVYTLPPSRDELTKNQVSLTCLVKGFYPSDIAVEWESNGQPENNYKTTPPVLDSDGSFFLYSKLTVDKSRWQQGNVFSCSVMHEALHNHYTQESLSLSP
light: DIVMTQSPLSLPVTPGEPASISCQASESLVHSNRNTYLHWYLQKPGQSPQLLIYKVSNRFSGVPDRFSGSGSGTDFTLKISRVEAEDVGVYYCSQNTHVPPTFGQGTKVEIE
notes: B3 variant; copies: 2 + 2
B7: GpH7-B3 P271Y/GpL16-k0 (antibody, human IgG1)
heavy: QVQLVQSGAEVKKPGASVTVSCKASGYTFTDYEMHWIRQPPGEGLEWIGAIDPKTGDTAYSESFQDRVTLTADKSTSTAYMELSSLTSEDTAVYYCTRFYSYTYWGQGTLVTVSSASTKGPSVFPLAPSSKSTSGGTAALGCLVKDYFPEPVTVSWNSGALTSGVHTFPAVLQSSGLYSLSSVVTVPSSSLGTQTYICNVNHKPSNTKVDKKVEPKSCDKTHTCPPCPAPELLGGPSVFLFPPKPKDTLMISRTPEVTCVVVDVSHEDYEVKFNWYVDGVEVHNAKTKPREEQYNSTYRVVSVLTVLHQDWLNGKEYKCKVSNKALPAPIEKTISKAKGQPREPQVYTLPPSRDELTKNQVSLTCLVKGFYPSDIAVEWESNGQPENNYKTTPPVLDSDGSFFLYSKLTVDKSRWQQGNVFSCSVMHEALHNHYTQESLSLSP
light: DIVMTQSPLSLPVTPGEPASISCQASESLVHSNRNTYLHWYLQKPGQSPQLLIYKVSNRFSGVPDRFSGSGSGTDFTLKISRVEAEDVGVYYCSQNTHVPPTFGQGTKVEIE
notes: B3 variant; copies: 2 + 2
B8: GpH7-B3 P329E/GpL16-k0 (antibody, human IgG1)
heavy: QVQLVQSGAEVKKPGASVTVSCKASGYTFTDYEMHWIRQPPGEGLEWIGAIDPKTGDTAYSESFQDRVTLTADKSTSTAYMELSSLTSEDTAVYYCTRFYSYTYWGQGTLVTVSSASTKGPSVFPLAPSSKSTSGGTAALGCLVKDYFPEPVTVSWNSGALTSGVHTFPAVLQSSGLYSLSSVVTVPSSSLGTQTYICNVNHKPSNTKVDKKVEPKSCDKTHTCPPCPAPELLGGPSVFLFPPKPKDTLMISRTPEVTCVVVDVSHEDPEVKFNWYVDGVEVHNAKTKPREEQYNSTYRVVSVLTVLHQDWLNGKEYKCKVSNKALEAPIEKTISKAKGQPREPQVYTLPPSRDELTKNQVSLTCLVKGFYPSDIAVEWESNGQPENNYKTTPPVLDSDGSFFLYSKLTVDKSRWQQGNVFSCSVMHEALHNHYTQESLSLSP
light: DIVMTQSPLSLPVTPGEPASISCQASESLVHSNRNTYLHWYLQKPGQSPQLLIYKVSNRFSGVPDRFSGSGSGTDFTLKISRVEAEDVGVYYCSQNTHVPPTFGQGTKVEIE
notes: B3 variant; copies: 2 + 2
B9: GpH7-B3 P329G/GpL16-k0 (antibody, human IgG1)
heavy: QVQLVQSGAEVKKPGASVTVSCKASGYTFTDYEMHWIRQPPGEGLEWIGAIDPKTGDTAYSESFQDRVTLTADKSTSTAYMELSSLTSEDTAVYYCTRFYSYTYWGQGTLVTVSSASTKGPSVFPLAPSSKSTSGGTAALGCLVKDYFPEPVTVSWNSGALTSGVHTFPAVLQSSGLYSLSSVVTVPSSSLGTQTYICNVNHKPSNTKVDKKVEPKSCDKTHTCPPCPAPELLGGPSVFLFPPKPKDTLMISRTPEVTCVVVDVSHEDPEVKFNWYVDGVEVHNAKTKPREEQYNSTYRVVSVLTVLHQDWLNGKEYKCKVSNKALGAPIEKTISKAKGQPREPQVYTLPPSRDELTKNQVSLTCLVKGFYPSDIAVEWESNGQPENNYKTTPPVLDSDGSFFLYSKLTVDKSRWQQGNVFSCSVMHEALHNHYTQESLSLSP
light: DIVMTQSPLSLPVTPGEPASISCQASESLVHSNRNTYLHWYLQKPGQSPQLLIYKVSNRFSGVPDRFSGSGSGTDFTLKISRVEAEDVGVYYCSQNTHVPPTFGQGTKVEIE
notes: B3 variant; copies: 2 + 2
B10: GpH7-B3 P329H/GpL16-k0 (antibody, human IgG1)
heavy: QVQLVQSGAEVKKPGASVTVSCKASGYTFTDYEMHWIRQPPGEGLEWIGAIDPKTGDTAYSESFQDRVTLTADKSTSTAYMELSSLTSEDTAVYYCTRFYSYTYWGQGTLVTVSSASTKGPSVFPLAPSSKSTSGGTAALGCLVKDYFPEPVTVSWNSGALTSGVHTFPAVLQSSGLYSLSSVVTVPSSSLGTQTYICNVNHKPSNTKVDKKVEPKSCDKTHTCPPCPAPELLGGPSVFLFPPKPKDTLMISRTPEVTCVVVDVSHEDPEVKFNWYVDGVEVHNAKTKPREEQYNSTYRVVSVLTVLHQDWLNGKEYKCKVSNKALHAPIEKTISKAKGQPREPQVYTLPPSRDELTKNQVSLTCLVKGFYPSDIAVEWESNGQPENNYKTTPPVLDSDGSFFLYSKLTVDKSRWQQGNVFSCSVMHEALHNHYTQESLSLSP
light: DIVMTQSPLSLPVTPGEPASISCQASESLVHSNRNTYLHWYLQKPGQSPQLLIYKVSNRFSGVPDRFSGSGSGTDFTLKISRVEAEDVGVYYCSQNTHVPPTFGQGTKVEIE
notes: B3 variant; copies: 2 + 2
B11: GpH7-B3 P329N/GpL16-k0 (antibody, human IgG1)
heavy: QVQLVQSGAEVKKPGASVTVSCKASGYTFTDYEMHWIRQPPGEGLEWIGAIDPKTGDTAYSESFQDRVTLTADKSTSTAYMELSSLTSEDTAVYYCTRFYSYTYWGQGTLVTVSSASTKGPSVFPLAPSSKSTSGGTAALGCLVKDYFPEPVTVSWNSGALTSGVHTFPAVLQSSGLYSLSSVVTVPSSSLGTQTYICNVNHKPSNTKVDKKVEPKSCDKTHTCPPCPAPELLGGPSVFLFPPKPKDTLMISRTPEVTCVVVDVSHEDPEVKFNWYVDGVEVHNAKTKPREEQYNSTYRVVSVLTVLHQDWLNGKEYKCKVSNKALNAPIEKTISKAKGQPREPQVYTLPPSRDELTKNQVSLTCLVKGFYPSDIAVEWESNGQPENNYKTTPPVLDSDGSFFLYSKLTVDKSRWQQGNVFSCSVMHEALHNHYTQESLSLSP
light: DIVMTQSPLSLPVTPGEPASISCQASESLVHSNRNTYLHWYLQKPGQSPQLLIYKVSNRFSGVPDRFSGSGSGTDFTLKISRVEAEDVGVYYCSQNTHVPPTFGQGTKVEIE
notes: B3 variant; copies: 2 + 2

Assays:
Test in all cases: SPR, captured antibody;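 note: antibody captured on a sensor chip, Fcγ receptor flowed over at 25 °C, receptor binding normalized to the captured antibody amount and expressed relative to the reference antibody ×100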
human FcγRIa = target: T4, human FcγRIa (human, UniProt P12314 16-292, limits assumed)
T4 construct: also called FcgRIa; hFcgRIa
Procedure: (§1) Interaction between each modified antibody and Fcγ receptor prepared in the manner described above was analyzed using the BIACORE™ T100 surface plasmon resonance system (GE Healthcare), BIACORE™ T200 surface plasmon resonance system (GE Healthcare), BIACORE™ A100 surface plasmon resonance system or BIACORE™ 4000 surface plasmon resonance system. HBS-EP+ (GE Healthcare) was used for the running buffer, and measurements were carried out at 25° C. The chips used were chips in which antigen peptides, Protein A (Thermo Scientific), Protein A/G (Thermo Scientific) or Protein L (ACTIGEN® protein (Alltech or BioVision) were immobilized on the Series S Sensor Chip CMS (GE Healthcare) or Series S Sensor Chip CM4 (GE Healthcare) by amine coupling, or chips in which preliminarily biotinylated antigen peptides were allowed to interact and then immobilized on the Series S Sensor Chip SA (certified) (GE Healthcare). The target antibodies were captured on these sensor chips, Fcγ receptor diluted with the running buffer was allowed to interact, followed by measurement of the amount of bound antibody. The amounts bound were compared between antibodies. However, since the amount of Fcγ receptor bound depends on the amount of captured antibody, the values used for comparison were first corrected by dividing the amount of Fcγ receptor bound by the captured amount of each antibody. Through reaction with 10 mM glycine-HCl at pH 1.5, the sensor chips were regenerated by washing off antibody captured on the sensor chips and used repeatedly.
(§2) Binding strength was evaluated according to the following method based on the results of analyzing the interaction with each FcγR. […] That value was then further multiplied by 100, and the resulting value was used as an indicator of relative binding activity to each FcγR.

human FcγRIIa(R) = target: T1, human FcγRIIa(R)
Procedure: as §1, §2

human FcγRIIa(H) = target: T2, human FcγRIIa(H)
Procedure: as §1, §2

human FcγRIIb = target: T3, human FcγRIIb
Procedure: as §1, §2

T4 sequence (P12314 16-292 limits assumed): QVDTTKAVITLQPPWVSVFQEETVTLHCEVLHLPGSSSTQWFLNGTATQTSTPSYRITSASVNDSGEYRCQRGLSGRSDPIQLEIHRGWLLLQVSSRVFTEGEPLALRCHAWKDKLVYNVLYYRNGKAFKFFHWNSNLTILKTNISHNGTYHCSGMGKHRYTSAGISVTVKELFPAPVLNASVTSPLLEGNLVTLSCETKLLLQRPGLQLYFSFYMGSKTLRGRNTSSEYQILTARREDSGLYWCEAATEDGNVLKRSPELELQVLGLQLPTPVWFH

| Binder | relative binding activity (human FcγRIa) | relative binding activity (human FcγRIIa(R)) | relative binding activity (human FcγRIIa(H)) | relative binding activity (human FcγRIIb) |
| --- | --- | --- | --- | --- |
| B1 | 56 % of GpH7-B3/GpL16-k0 | 0 % of GpH7-B3/GpL16-k0 | 1 % of GpH7-B3/GpL16-k0 | 0 % of GpH7-B3/GpL16-k0 |
| B2 | 43 % of GpH7-B3/GpL16-k0 | -1 % of GpH7-B3/GpL16-k0 | 0 % of GpH7-B3/GpL16-k0 | -2 % of GpH7-B3/GpL16-k0 |
| B3 | 100 % of GpH7-B3/GpL16-k0 | 46 % of GpH7-B3/GpL16-k0 | 75 % of GpH7-B3/GpL16-k0 | 33 % of GpH7-B3/GpL16-k0 |
| B4 | 92 % of GpH7-B3/GpL16-k0 | 42 % of GpH7-B3/GpL16-k0 | 9 % of GpH7-B3/GpL16-k0 | 39 % of GpH7-B3/GpL16-k0 |
| B5 | 23 % of GpH7-B3/GpL16-k0 | -1 % of GpH7-B3/GpL16-k0 | -1 % of GpH7-B3/GpL16-k0 | -2 % of GpH7-B3/GpL16-k0 |
| B6 | 94 % of GpH7-B3/GpL16-k0 | 55 % of GpH7-B3/GpL16-k0 | 4 % of GpH7-B3/GpL16-k0 | 48 % of GpH7-B3/GpL16-k0 |
| B7 | 98 % of GpH7-B3/GpL16-k0 | 38 % of GpH7-B3/GpL16-k0 | 48 % of GpH7-B3/GpL16-k0 | 28 % of GpH7-B3/GpL16-k0 |
| B8 | 33 % of GpH7-B3/GpL16-k0 | -1 % of GpH7-B3/GpL16-k0 | 0 % of GpH7-B3/GpL16-k0 | -2 % of GpH7-B3/GpL16-k0 |
| B9 | 92 % of GpH7-B3/GpL16-k0 | 1 % of GpH7-B3/GpL16-k0 | 1 % of GpH7-B3/GpL16-k0 | 0 % of GpH7-B3/GpL16-k0 |
| B10 | 50 % of GpH7-B3/GpL16-k0 | -1 % of GpH7-B3/GpL16-k0 | 0 % of GpH7-B3/GpL16-k0 | -3 % of GpH7-B3/GpL16-k0 |
| B11 | 45 % of GpH7-B3/GpL16-k0 | 4 % of GpH7-B3/GpL16-k0 | 5 % of GpH7-B3/GpL16-k0 | 0 % of GpH7-B3/GpL16-k0 |
